Where a chain is given by its changes, count along the chain named.

Broadly, the Kd is a measure of binding affinity in units of concentration. The term koff denotes the rate constant with which the complex falls apart. As usually defined, the kon is the second-order rate constant of association.

Sequences and labels used below:
B1: 10D5-2-3 antibody-humanized antibody HV3LV2 (antibody, V domains shown)
VH: EVQLVESGGGLVQPGGSLRLSCAASGFTFSNYWMNWVRQAPGKGLEWVAHIRLKSDNYATHYAESVRGRFTISRDDSKNSLYLQMNSLKTEDTAVYYCTGGSNYVFAFWGQGTLVTVSS
VL: DIVMTQSPDSLAVSLGERATINCRASESVDNYGISFMNWFQQKPGQPPKLLIYAASNQGSGVPDRFSGSGSGTDFTLTISSLQAEDVAVYFCQQSKEVPWTFGQGTKLEIK
notes: Expressed from pKANTEX93
B2: 10D5-2-3 antibody-humanized antibody HV4bLV2 (antibody, V domains shown)
VH: B1 VH with V95I
VL: B1 VL
notes: Expressed from pKANTEX93
B3: 10D5-2-3 antibody-humanized antibody HV4bLV3 (antibody, V domains shown)
VH: B1 VH with V95I
VL: B1 VL with S81P
notes: Expressed from pKANTEX93
B4: 10D5-2-3 antibody-humanized antibody HV7aLV2 (antibody, V domains shown)
VH: B1 VH with G8R, L18M, N79S, A94G
VL: B1 VL
notes: Expressed from pKANTEX93
B5: 10D5-2-3 antibody-humanized antibody HV4aLV0 (antibody, V domains shown)
VH: B1 VH with G8R, L18M, A49G, N79S, T99A
VL: B1 VL with F40Y, F91Y
notes: Expressed from pKANTEX93
B6: 10D5-2-3 antibody-humanized antibody HV4bLV0 (antibody, V domains shown)
VH: B1 VH with V95I
VL: B1 VL with F40Y, F91Y
notes: Expressed from pKANTEX93
B7: 10D5-2-3 antibody-humanized antibody HV3LV6 (antibody, V domains shown)
VH: B1 VH
VL: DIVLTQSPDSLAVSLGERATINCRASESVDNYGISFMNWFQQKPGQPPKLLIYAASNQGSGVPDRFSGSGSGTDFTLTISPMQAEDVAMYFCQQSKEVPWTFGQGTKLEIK
notes: Expressed from pKANTEX93
B8: 10D5-2-3 antibody-humanized antibody HV7aLV0 (antibody, V domains shown)
VH: B1 VH with G8R, L18M, N79S, A94G
VL: B1 VL with F40Y, F91Y
notes: Expressed from pKANTEX93
B9: 10D5-2-3 antibody-humanized antibody HV3LV3 (antibody, V domains shown)
VH: B1 VH
VL: B1 VL with S81P
notes: Expressed from pKANTEX93
B10: 10D5-2-3 antibody-humanized antibody HV7bLV2 (antibody, V domains shown)
VH: B1 VH with G8R, L18M, L81V, A94G
VL: B1 VL
notes: Expressed from pKANTEX93
B11: 10D5-2-3 antibody-humanized antibody HV3LV0 (antibody, V domains shown)
VH: B1 VH
VL: B1 VL with F40Y, F91Y
notes: Expressed from pKANTEX93
B12: 10D5-2-3 antibody-humanized antibody HV4bLV6 (antibody, V domains shown)
VH: B1 VH with V95I
VL: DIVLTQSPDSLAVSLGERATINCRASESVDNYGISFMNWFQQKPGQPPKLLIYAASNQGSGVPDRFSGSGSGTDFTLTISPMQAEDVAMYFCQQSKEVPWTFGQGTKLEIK
notes: Expressed from pKANTEX93

The assay addresses T1, human mature dimer BMP9 recombinant protein (manufactured by R&D systems, Cat#3209-BP) (human, UniProt Q9UK05 320-429).
T1 construct: Bought protein; also called human BMP9; human BMP9 recombinant protein (manufactured by R&D systems)
T1 sequence: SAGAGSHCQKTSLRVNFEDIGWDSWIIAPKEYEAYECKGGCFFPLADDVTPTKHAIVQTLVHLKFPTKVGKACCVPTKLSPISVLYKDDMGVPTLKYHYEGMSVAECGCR
Nature of the assay: SPR (Biacore T100), antibody captured on anti-human IgG, human BMP9 (R&D 3209-BP) as analyte, 5 concentrations from 1 nM. On the procedure: For the purpose of comparing binding activity to human BMP9 between c10D5-2-3 antibody and 22 types of 10D5-2-3 antibody-humanized antibodies obtained in Example 22-7, binding activity to human BMP9 recombinant protein (manufactured by R&D systems) was measured by surface plasmon resonance (SPR) using a BiacoreT100 instrument (manufactured by GE Healthcare bioscience).
Anti-human IgG antibody was immobilized onto a CM5 sensor chip (manufactured by GE Healthcare bioscience) using a Human Antibody Capture Kit (manufactured by GE Healthcare bioscience) in accordance with the accompanying protocol. 0.4 μg/mL of c10D5-2-3 antibody or each humanized antibody was applied to the flow cell onto which anti-human IgG antibody was immobilized, at a flow rate of 10 μL/min for 2 minutes.
Subsequently, human BMP9 recombinant protein (manufactured by R&D systems, Cat#3209-BP) was subjected to 2-fold serial dilution starting from […] to give 5 concentrations, and applied at a flow rate of 10 μL/min, and association was monitored over 3 minutes and dissociation over 3 minutes at a flow of 10 μL/min. The sensorgram thus obtained was analyzed by BiaEvaluation Software (manufactured by GE Healthcare bioscience) to calculate the rate constant of each antibody.
On to B1, for which the Kd is 0.0116 nM, the koff came to 0.000596 s⁻¹ and the kon is 5.12e+07 M⁻¹ s⁻¹.

Consider B2, for which the Kd turned out to be 0.0109 nM, the koff amounted to 0.000588 s⁻¹ and the kon is 5.39e+07 M⁻¹ s⁻¹.

As for B3, the Kd was determined as 0.0101 nM, the koff is 0.000556 s⁻¹ and the kon stood at 5.5e+07 M⁻¹ s⁻¹.

Consider B4, for which the Kd was 0.00957 nM, the dissociation rate constant (koff) was found to be 0.000477 s⁻¹ and the on-rate (kon) turned out to be 4.98e+07 M⁻¹ s⁻¹.

In the case of B5, the equilibrium dissociation constant (Kd) came to 0.00924 nM, the off-rate constant (koff) amounted to 0.00145 s⁻¹ and the kon was 1.57e+08 M⁻¹ s⁻¹.

For B6, the Kd stood at 0.0114 nM, the koff was 0.00164 s⁻¹ and the kon was 1.44e+08 M⁻¹ s⁻¹.

Turning to B7, the Kd turned out to be 0.0119 nM, the koff was found to be 0.000555 s⁻¹ and the kon was found to be 4.67e+07 M⁻¹ s⁻¹.

With B8, the Kd stood at 0.00969 nM, the koff came to 0.00142 s⁻¹ and the kon worked out at 1.47e+08 M⁻¹ s⁻¹.

As to B9, the Kd amounted to 0.00949 nM, the koff stood at 0.000516 s⁻¹ and the kon was 5.43e+07 M⁻¹ s⁻¹.

In the case of B10, the Kd is 0.00491 nM, the koff came to 0.000307 s⁻¹ and the kon was 6.25e+07 M⁻¹ s⁻¹.

As to B11, the Kd came to 0.0114 nM, the koff amounted to 0.00172 s⁻¹ and the kon came to 1.51e+08 M⁻¹ s⁻¹.

In the case of B12, the Kd came to 0.0119 nM, the koff is 0.000531 s⁻¹ and the kon turned out to be 4.46e+07 M⁻¹ s⁻¹.
